System: Escherichia coli TOP10
Experiment: shrunken log2 fold change of peptide-encoding DNA abundance (4.5 h post-induction vs induction); higher = less antimicrobial activity (less host growth inhibition)
Conditions: time post-induction: 4.5 h; library: site-saturation at positions 5, 18, 19, 20
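Note: peptides expressed intracellularly from a pBAD plasmid library in pooled LB shake-flask culture, induced with 0.3% L-arabinose, DNA abundance read by NGS, three biological replicates, DESeq2 with apeglm shrinkage.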

Sequence	shrunken log2 fold change
RRIRLRPPRLPRPRPRPDSHPRP	-0.46
RRIRPRPPRLPRPRPRPNHQPRP	-0.251
RRIRGRPPRLPRPRPRPIPLPRP	0.16
RRIRVRPPRLPRPRPRPTVCPRP	0.518
RRIRVRPPRLPRPRPRPHDNPRP	-0.445
RRIRIRPPRLPRPRPRPKEFPRP	-0.361
RRIRTRPPRLPRPRPRPKKSPRP	-0.106
RRIRGRPPRLPRPRPRPDIDPRP	2.17
RRIRRRPPRLPRPRPRPFHTPRP	-0.0624
RRIRYRPPRLPRPRPRPRGHPRP	-0.117
RRIRYRPPRLPRPRPRPNSCPRP	0.0432
RRIRDRPPRLPRPRPRPIRLPRP	0.015
RRIRVRPPRLPRPRPRPDQFPRP	-0.0568
RRIRRRPPRLPRPRPRPAPGPRP	0.812
RRIRTRPPRLPRPRPRPWSCPRP	-0.29
RRIRMRPPRLPRPRPRPNVFPRP	0.136
RRIRDRPPRLPRPRPRPCVWPRP	0.321
RRIRPRPPRLPRPRPRPYGKPRP	-0.307
RRIRMRPPRLPRPRPRPMLTPRP	2.52
RRIRIRPPRLPRPRPRPDDYPRP	0.07

Sequence	shrunken log2 fold change
RRIRDRPPRLPRPRPRPMDVPRP	-0.0846
RRIRTRPPRLPRPRPRPAYYPRP	0.0141
RRIRSRPPRLPRPRPRPFRGPRP	-0.242
RRIRRRPPRLPRPRPRPICTPRP	0.391
RRIRSRPPRLPRPRPRPHLYPRP	-0.02
RRIRQRPPRLPRPRPRPNIDPRP	-0.516
RRIRMRPPRLPRPRPRPHFEPRP	-0.0874
RRIRRRPPRLPRPRPRPQFNPRP	-0.323
RRIRMRPPRLPRPRPRPFFFPRP	0.365
RRIRIRPPRLPRPRPRPSLNPRP	-0.595
RRIRMRPPRLPRPRPRPYPGPRP	0.0814
RRIRMRPPRLPRPRPRPDIYPRP	0.0832
RRIRDRPPRLPRPRPRPNFMPRP	-0.316
RRIRWRPPRLPRPRPRPYFKPRP	-0.839
RRIRIRPPRLPRPRPRPYLHPRP	-1.61
RRIRARPPRLPRPRPRPHLTPRP	-0.145
RRIRERPPRLPRPRPRPLQYPRP	-0.286
RRIRYRPPRLPRPRPRPWYRPRP	0.729
RRIRYRPPRLPRPRPRPYVTPRP	-0.115
RRIRHRPPRLPRPRPRPIRNPRP	-0.387

Sequence	shrunken log2 fold change
RRIRTRPPRLPRPRPRPTIKPRP	-0.051
RRIRWRPPRLPRPRPRPSITPRP	-0.0237
RRIRHRPPRLPRPRPRPDMQPRP	-0.106
RRIRERPPRLPRPRPRPLVFPRP	-0.153
RRIRSRPPRLPRPRPRPNCQPRP	-0.0974
RRIRNRPPRLPRPRPRPVAAPRP	0.359
RRIRHRPPRLPRPRPRPNTPPRP	0.0157
RRIRYRPPRLPRPRPRPAGHPRP	-0.0387
RRIRDRPPRLPRPRPRPVWHPRP	0.0277
RRIRKRPPRLPRPRPRPYIMPRP	-0.153
RRIRLRPPRLPRPRPRPCVQPRP	-0.0514
RRIRRRPPRLPRPRPRPKSQPRP	0.104
RRIRERPPRLPRPRPRPRMCPRP	-0.0502
RRIRARPPRLPRPRPRPNPQPRP	0.002
RRIRARPPRLPRPRPRPDYTPRP	-0.312
RRIRDRPPRLPRPRPRPFAGPRP	0.0426
RRIRDRPPRLPRPRPRPNQVPRP	-0.329
RRIRTRPPRLPRPRPRPYWCPRP	-0.53
RRIRPRPPRLPRPRPRPMRQPRP	0.398
RRIRGRPPRLPRPRPRPTTHPRP	0.875

Reference: the supplement of paper PMC9112550, “Optimization of the antimicrobial peptide Bac7 by deep mutational scanning” (BMC Biology, 2022)
